Measurements taken from publication doi:10.64898/2025.12.12.693935.

Biological target: CD82-StrepII3 (human) (UniProt P27701)
Assay: SEC

stoichiometry N: 1
B1: CADM1-His6 (natural protein)
chain: QNLFTKDVTVIEGEVATISCQVNKSDDSVIQLLNPNRQTIYFRDFRPLKDSRFQLLNFSSSELKVSLTNVSISDEGRYFCQLYTDPPQESYTTITVLVPPRNLMIDIQKDTAVEGEEIEVNCTAMASKPATTIRWFKGNTELKGKSEVEEWSDMYTVTSQLMLKVHKEDDGVPVICQVEHPAVTGNLQTQRYLEVQYKPQVHIQMTYPLQGLTREGDALELTCEAIGKPQPVMVTWVRVDDEMPQHAVLSGPNLFINNLNKTDNGTYRCEASNIVGKAHSDYMLYVYDPPTTIPPPTTTTTTTTTTTTTILTIITDSRAGEEGSIRAVDHAVIGGVVAVVVFAMLCLLIILGRYFARHKGTYFTHEAKGADDAADADTAIINAEGGQNNSEEKKEYFI
